From US20210145921A1, “COMPOSITION COMPRISING VEGF ANTAGONISTS AND A CATIONIC PEPTIDE AND USES THEREOF” (UCL BUSINESS LTD, priority 2017, published 2021)
One block for each molecule: values may come before it.

What was measured:
[1] = tested on: HCE-S corneal epithelial barrier; test: in vitro HCE-S transwell transcytosis assay (Papp); assay type: in vitro ADME, human; conditions: for enhancement of delivery of Lucentis across the HCE-S barrier: Papp
Procedure: HCE-S barrier models for transcytosis assays were prepared using an adaptation of a previously described method.^[1] HCE-S cells (5×10^4 cells/well) were seeded on transwell inserts (poly-carbonate, 3 μm pore size, 1.13 cm^2) and maintained for 7 days refreshing the medium in the apical and basal chambers every second day. After this time cells were cultured for a further 10 days at an apical air interface to encourage development of a multilayer barrier. Prior to each experiment culture medium was replaced with phenol red free DMEM and barrier integrity measured via transepithelial resistance (TER). TER values were obtained in the range 300-600 Ωcm^2 and only epithelial barriers with TERs>300 Ω·cm^2, the accepted threshold for tight epithelial barriers, were used for transcytosis experiments.
Permeation studies were conducted to determine the rate of anti-VEGF transcytosis in the presence/absence of varying concentrations of R8. Experiments were initiated by adding 1.5 ml serum- and phenol red-free DMEM to the basal chamber and 0.5 ml to the apical chamber containing 0.1 mg/mL Avastin or Lucentis in the presence of varying molar ratios of R8. After 3 h, 100 μl of medium was withdrawn from the basal chamber and the concentration of anti-VEGF in the basal chamber was determined using established and commercially available sandwich ELISA techniques (KPL Protein Detector HRP Microwell Kit, Anti-Human Cat #54-62-10 with Jackson Immuno Research AffiniPure Rabbit Anti-Human IgG capture antibody).^[1] […] The permeability coefficient (Papp) of each anti-VEGF was determined as previously described^[1] using equation 1;
where CR is the final concentration of anti-VEGF recovered from the ELISA assay, CD is the initial concentration of anti-VEGFs added to the assay, tmin is the transcytosis time (180 min), VR is the volume of the receiving chamber (1.5 ml) and A represents the filter area (1.12 cm^2).
Lucentis (+/−Steryl-R8) were applied to the Apical chamber and the concentration crossing the barrier was determined from the basolateral chamber at different timepoints using a Lucentis sandwich ELISA. Intact HCE-S barrier was confirmed by measuring transepithelial resistance (>[…]) before each assay.

rhVEGF165 = conditions: read-out: IC50, tissue factor up-regulation; cited from earlier work
[2] = tested on: human umbilical vein endothelial cell (HUVEC); conditions: cited from earlier work
[3] = in vivo; cited from earlier work
[4] = in vivo rabbit study, topical instillation, anti-VEGF in eye tissue by sandwich ELISA; design: species or system New Zealand rabbits
Procedure: All animal experiments were performed in compliance with the ARVO Statement for the Use of Animals in Ophthalmic and Vision Research. New Zealand rabbits received unilateral topical instillations of 0.03 mL anti-VEGF in the presence of R8 (varying molar concentrations) either as a liquid or hydrogel formulations without anaesthesia. At the specified time after application animals were euthanized before enucleation, washing (PBS) and snap-freezing and dissection of ocular tissues. Samples were weighed and cryohomogenised before the concentration of anti-VEGF per gram of eye tissue determined using established sandwich ELISA protocols.

[5] = human, in vivo; cited from earlier work
HCE-S cells = test: AlamarBlue cell viability assay; assay type: cell-based, human; conditions: 24 h exposure, up to 200/1 molar ratio
Procedure: HCE-S monolayers for uptake assays were prepared by seeding 96 well plates with 1×10^4 cells/well and maintaining for 5 days replacing the medium every other day. After this time, medium was replaced with that containing 100 μM calcein loaded PLVs in the presence or absence of 200 nM AnxA5. Cells were incubated with PLVs at 37° C. for 3 h protected from light. Epithelial monolayers were then washed three times in ice cold PBS (with calcium and magnesium) to remove free PLVs, followed by a single wash in ice cold isosmotic citrate buffer (pH 3) to remove surface bound PLVs before applying a PBS wash containing 1% Triton X-100 to solubilise membranes. Upon completion of each washing step, calcein fluorescence was measured using a 485 nm excitation and 515 nm emission with a SAFIRE micro plate reader (TECAN) HCE-S monolayers for viability assays were prepared by seeding 96 well plates with 1×10^4 cells/well and maintaining for 24 h at 37° C. in a humidified incubator with 5% CO2. […] Cells were incubated with anti-VEGF/R8 solutions for 24 h before viability of HCE-S cells in response to was assessed using the AlamarBlue (Invitrogen) cell viability assay according to manufacturers instructions. […]

[6] = dextran transcytosis assay; assay type: in vitro ADME
From the text: The fifth experiment conducted was whether R8 affected the transport of dextrans across a membrane, FIG. 27. Dextrans are complex branched polysaccharides made of many glucose molecules. They can be composed of chains of varying lengths.

transcytosis of anti-VEGF (Lucentis) loaded liposomes [1]: significantly enhanced | enhancement of delivery of Lucentis across the HCE-S barrier [1]: concentration dependent manner
Molecule: CCCCCCCCCCCCCCCCCC(=O)N[C@@H](CCCNC(=N)N)C(=O)N[C@@H](CCCNC(=N)N)C(=O)N[C@@H](CCCNC(=N)N)C(=O)N[C@@H](CCCNC(=N)N)C(=O)N[C@@H](CCCNC(=N)N)C(=O)N[C@@H](CCCNC(=N)N)C(=O)N[C@@H](CCCNC(=N)N)C(=O)N[C@@H](CCCNC(=N)N)C(=O)O [ST-R8, Stearyl-R8]

Molecule: Ranibizumab [Lucentis]
transport across the HCE-S barrier in the presence of R8 (ST-R8) [1]: aided the transport | IC50 (rhVEGF165): 0.31 nM | concentration giving total inhibition of proliferation [2]: ≥ 1.3 nM | IC50 ([2]; read-out: IC50, VEGF-induced proliferation): < 1 nM | half-life in the eye [3]: 173 h | free Lucentis detected in retina ([4]; 2 h after topical instillation): ~20 ng | concentration detected in plasma ([4]; free Lucentis, topical instillation, 2 h): < 0.1 ng/mL | proportion of dosed free Lucentis reaching the retina by the topical route ([4]; from dosed eye versus co-eye concentration, n=10): ~30% | Lucentis delivery to the retina ([4]; liquid formulation, 2 h, n=3): 18 ± 8 ng/g | levels of Lucentis in the vitreous and retina/choroid ([4]; rabbit, one eye dosed, 2 hours after topical application): 10 ng/g tissue | clinical Cmax predicted at steady state [5]: 1.7 ng/mL | clinical Cmax, maximal individual level [5]: 2.4 ng/mL

Molecule: Bevacizumab [Avastin]
transport across the HCE-S barrier in the presence of R8 (ST-R8) [1]: aided the transport

transcytosis of Lucentis, peptide alone without liposomes [1]: dramatic enhancement in transcytosis | enhancement of delivery of Lucentis across the HCE-S barrier [1]: concentration dependent manner | effect on transport of different sizes of dextran across a membrane [6]: made no difference
Molecule: N=C(N)NCCC[C@H](NC(=O)[C@H](CCCNC(=N)N)NC(=O)[C@H](CCCNC(=N)N)NC(=O)[C@H](CCCNC(=N)N)NC(=O)[C@H](CCCNC(=N)N)NC(=O)[C@H](CCCNC(=N)N)NC(=O)[C@H](CCCNC(=N)N)NC(=O)[C@@H](N)CCCNC(=N)N)C(=O)O [R8, RRRRRRRR]
toxicity to HCE-S cells (HCE-S cells): non-toxic
